Where “and” joins values, the source holds several entries; their conditions need not be identical. Equal values may be shown once.
Settings: Homo sapiens, pH 7.5, Tris-HCl 20mM; for denaturant m value / unfolding free energy / ddG of mutation (higher = less stable): 10 °C, Urea; for Tm: Thermal
[1] = CD, transition: 2, structure 1XWS

Sequence of Serine/threonine-protein kinase pim-1 E135K, P11309 (P11309 whole entry E135K): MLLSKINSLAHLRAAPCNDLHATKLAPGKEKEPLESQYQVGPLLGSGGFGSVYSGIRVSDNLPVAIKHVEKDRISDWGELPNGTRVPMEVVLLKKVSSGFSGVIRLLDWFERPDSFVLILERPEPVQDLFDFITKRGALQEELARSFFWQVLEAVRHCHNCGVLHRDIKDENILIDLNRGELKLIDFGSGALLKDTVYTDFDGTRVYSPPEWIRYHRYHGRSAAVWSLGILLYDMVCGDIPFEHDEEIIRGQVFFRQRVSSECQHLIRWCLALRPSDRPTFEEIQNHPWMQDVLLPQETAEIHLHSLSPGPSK
Sequence of Serine/threonine-protein kinase pim-1 E124Q, P11309 (P11309 whole entry E124Q): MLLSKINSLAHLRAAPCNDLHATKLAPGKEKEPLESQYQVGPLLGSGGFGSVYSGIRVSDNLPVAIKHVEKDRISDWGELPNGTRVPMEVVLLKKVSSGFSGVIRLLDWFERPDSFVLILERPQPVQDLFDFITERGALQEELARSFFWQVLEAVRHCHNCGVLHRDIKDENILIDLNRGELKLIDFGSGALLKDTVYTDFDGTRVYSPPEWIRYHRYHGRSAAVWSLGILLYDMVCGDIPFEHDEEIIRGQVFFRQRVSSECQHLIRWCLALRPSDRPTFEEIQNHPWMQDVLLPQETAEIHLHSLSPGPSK
Sequence of Serine/threonine-protein kinase pim-1 wild type, P11309 (P11309 whole entry): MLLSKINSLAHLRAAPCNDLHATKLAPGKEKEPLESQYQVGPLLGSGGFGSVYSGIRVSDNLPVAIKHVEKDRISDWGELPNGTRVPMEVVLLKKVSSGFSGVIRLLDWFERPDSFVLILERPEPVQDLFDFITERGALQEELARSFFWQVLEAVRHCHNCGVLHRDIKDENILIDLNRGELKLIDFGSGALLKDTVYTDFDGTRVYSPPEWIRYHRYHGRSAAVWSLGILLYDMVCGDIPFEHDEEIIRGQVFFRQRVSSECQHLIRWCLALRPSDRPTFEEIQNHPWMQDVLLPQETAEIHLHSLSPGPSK
Sequence of Serine/threonine-protein kinase pim-1 E142D, P11309 (P11309 whole entry E142D): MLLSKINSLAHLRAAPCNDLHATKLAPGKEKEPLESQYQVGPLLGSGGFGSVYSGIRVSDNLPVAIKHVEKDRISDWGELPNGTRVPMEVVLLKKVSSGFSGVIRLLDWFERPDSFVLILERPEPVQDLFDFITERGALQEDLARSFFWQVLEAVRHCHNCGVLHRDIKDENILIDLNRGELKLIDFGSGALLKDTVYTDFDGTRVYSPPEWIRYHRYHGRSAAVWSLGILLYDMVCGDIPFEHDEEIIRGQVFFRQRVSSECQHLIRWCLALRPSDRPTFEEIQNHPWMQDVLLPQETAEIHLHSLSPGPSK
Sequence of Serine/threonine-protein kinase pim-1 Y53H, P11309 (P11309 whole entry Y53H): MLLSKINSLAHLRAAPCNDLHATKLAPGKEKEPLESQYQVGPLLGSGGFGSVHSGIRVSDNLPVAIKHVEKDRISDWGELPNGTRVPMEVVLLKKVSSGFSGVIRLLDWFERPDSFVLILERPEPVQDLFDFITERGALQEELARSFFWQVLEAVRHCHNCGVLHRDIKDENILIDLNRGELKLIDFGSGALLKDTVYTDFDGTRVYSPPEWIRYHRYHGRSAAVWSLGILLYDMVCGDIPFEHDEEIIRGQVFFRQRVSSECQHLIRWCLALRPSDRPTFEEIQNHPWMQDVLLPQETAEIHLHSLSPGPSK

| Substance | denaturant m value (CD, transition: 2) | unfolding free energy (CD, transition: 2) | Tm (CD, transition: 3) | unfolding free energy (Fluorescence, transition: 4, structure 1XWS) | Tm [1] | ddG of mutation (higher = less stable) [1] | denaturant m value [1] | unfolding free energy [1] |
| --- | --- | --- | --- | --- | --- | --- | --- | --- |
| Serine/threonine-protein kinase pim-1 wild type, P11309 | 1.2 kcal/mol/M | 6.41 kcal/mol | 40.5 °C |  |  |  |  |  |
| Serine/threonine-protein kinase pim-1 E124Q, P11309 |  |  |  | 3.46 kcal/mol and 3.08 kcal/mol and 5.22 kcal/mol | 44 °C |  |  |  |
| Serine/threonine-protein kinase pim-1 E142D, P11309 |  |  |  |  | 40 °C | 3.22 kcal/mol | 0.69 kcal/mol/M | 3.19 kcal/mol |
| Serine/threonine-protein kinase pim-1 Y53H, P11309 |  |  |  |  |  | 3.3 kcal/mol | 0.62 kcal/mol/M | 3.11 kcal/mol |
| Serine/threonine-protein kinase pim-1 E135K, P11309 |  |  |  |  | 40.5 °C | 4.59 kcal/mol | 0.43 kcal/mol/M | 1.82 kcal/mol |

Source: FireProtDB (doi:10.1371/journal.pone.0064824)
